The target in assay [1] is T1, recombinant 6x-His-tagged p32 protein (gC1qR/p32) (UniProt Q07021 74-282).
T1 construct: Predominantly (>97%) a trimer by sedimentation velocity; also called gC1q/p32 receptor; recombinant p32
T1 sequence (looked up): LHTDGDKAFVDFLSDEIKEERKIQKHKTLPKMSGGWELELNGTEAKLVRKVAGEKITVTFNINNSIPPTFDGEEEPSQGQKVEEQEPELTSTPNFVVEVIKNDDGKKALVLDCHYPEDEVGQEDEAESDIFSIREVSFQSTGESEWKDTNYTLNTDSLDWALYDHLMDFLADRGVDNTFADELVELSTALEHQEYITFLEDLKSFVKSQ
Description: T7 phage clone binding to immobilized p32 (FIG. 3).

In another assay the target is T2, BSA (UniProt P02769 25-607).
T2 construct: Control protein on beads
Kind of assay: T7 phage clone binding to protein-coated magnetic beads.

Assay [2] addresses T3, ligand-binding b1b2 domain of the cell and tissue penetration receptor NRP-1 (UniProt O14786 273-586, limits assumed).
T3 construct: domain: b1b2; Coated on magnetic beads; also called NRP-1 b1b2; NRP-1 b1b2 domain
T3 sequence (looked up): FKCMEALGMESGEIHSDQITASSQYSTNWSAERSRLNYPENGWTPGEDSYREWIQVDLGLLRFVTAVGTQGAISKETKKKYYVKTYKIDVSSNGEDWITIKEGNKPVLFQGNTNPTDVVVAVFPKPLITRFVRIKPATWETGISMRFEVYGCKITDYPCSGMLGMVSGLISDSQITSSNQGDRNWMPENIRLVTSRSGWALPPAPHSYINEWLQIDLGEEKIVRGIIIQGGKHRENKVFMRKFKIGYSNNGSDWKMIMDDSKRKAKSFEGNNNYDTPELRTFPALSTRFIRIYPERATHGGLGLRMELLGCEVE
Described as above.

Assay [3] has as its target T3, ligand-binding b1b2 domain of the cell …. Description: uPA-treated T7 phage binding to NRP-1 b1b2; reference untreated phage.
Assay [4] has as its target T4, NRP-1 (control protein in the fluorescence polarization assay) (UniProt O14786 273-586, limits assumed).
T4 construct: also called neuropilin-1
T4 sequence (looked up): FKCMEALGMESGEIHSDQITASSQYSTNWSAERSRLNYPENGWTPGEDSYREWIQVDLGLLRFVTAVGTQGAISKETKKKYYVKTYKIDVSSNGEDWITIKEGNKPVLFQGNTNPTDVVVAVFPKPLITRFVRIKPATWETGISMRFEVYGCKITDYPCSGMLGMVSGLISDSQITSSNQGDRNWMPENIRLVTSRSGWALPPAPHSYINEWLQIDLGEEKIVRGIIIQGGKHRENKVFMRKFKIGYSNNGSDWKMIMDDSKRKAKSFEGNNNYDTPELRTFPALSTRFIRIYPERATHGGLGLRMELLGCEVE
Description: fluorescence polarization assay with synthetic peptide, NRP-1 as control protein. (In general: Fluorescence polarisation rises when a labelled molecule tumbles more slowly, as on binding a larger partner.)

The target in assay [5] is T1, recombinant 6x-His-tagged p32 protein …. Kind of assay: T7 phage binding to immobilized p32; reference LyP-1-displaying phage.

Ends that are not written are not given here.

T2 sequence (P02769 25-607 limits assumed): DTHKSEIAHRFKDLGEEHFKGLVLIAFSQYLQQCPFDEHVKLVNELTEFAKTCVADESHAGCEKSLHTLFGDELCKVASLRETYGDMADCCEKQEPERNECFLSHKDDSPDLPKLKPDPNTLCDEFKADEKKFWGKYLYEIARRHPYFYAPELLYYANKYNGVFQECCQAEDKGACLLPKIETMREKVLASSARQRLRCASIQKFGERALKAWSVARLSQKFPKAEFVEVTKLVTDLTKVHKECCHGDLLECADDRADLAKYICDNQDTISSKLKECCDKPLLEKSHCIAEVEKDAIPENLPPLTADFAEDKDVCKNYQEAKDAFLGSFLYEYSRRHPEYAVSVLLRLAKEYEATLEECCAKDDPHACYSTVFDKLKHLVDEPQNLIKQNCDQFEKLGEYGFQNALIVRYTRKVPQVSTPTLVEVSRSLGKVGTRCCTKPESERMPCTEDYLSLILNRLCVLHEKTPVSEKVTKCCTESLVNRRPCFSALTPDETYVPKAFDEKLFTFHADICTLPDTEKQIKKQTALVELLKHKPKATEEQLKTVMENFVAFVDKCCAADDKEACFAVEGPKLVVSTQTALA

B1: T7 phage displaying SRLGRMR (SEQ ID NO: 193) (peptide)
peptide: SRLGRMR
notes: also called phage clone selected on NRP-1 b1b2 domain
For the molecule B1, in assay [1], the binding result was “no binding”.

B2: T7 phage displaying CARGKRSLC (SEQ ID NO: 184) (peptide)
peptide: CARGKRSLC
modifications: not fully specified (bridges); cysteine pairing not given here; also: displayed on T7 phage
notes: also called RGXRS-displaying phage
B2: the binding result (with BSA; in assay [2]) was “no binding” each time.

B3: T7 phage displaying CKRGNRSVC (SEQ ID NO: 178) (peptide)
peptide: CKRGNRSVC
modifications: not fully specified (bridges); cysteine pairing not given here; also: displayed on T7 phage
notes: as for B2
In the case of B3, the binding result (in the assay with BSA; in assay [2]) was “no binding” each time.

B4: T7 phage displaying CARGARTKC (SEQ ID NO: 176) (peptide)
peptide: CARGARTKC
modifications: not fully specified (bridges); cysteine pairing not given here; also: displayed on T7 phage
notes: carries RGART rather than RGXRS
In the case of B4, the binding result in assay [2] is “no binding”.

B5: T7 phage displaying CKRGSRSSC (SEQ ID NO: 181) (peptide)
peptide: CKRGSRSSC
modifications: not fully specified (bridges); cysteine pairing not given here; also: displayed on T7 phage
notes: as for B2
With B5, the binding result (with BSA; in assay [2]) was “no binding” each time.

B6: T7 phage displaying GRGGRSRKLAAALE (SEQ ID NO: 161) (peptide)
peptide: GRGGRSRKLAAALE
notes: the C-terminal KLAAALE element is encoded by the phage genomic DNA; also called RGXRS-displaying phage
With B6, the binding result (with BSA; in assay [2]) was “no binding” throughout.

B7: uPA-treated T7 phage displaying the TT1 peptide (peptide)
peptide: CKRGAR
modifications: not fully specified
notes: not shown: T7 phage capsid (display carrier)
With B7, the “fold enhancement of binding” value in assay [3] was found to be 180 fold.

B8: T7 phage displaying CQRGTRSRC (SEQ ID NO: 182) (peptide)
peptide: CQRGTRSRC
modifications: not fully specified (bridges); cysteine pairing not given here; also: displayed on T7 phage
notes: as for B2
Turning to B8, the binding result (with BSA; in assay [2]) was “no binding” each time.

B9: T7 phage displaying RKRGGRS (SEQ ID NO: 166) (peptide)
peptide: RKRGGRS
notes: as for B2
Regarding B9, the binding result (with BSA; in assay [2]) was “no binding” in each case.

B10: synthetic TT1 Peptide CKRGARSTC (SEQ ID NO: 3), cyclic (peptide)
peptide: CKRGARSTC
modifications: also: cyclic (CycTT1), ring type not given here, used labeled and unlabeled, label and position not given here
notes: Free synthetic peptide used in fluorescence polarization assays; also called CycTT1; cyclic TT1 Peptide
Take B10: the binding result in assay [4] is on record as “no binding”.

B11: T7 phage displaying SMNEVRKR (SEQ ID NO: 192) (peptide)
peptide: SMNEVRKR
notes: as for B1
Regarding B11, in assay [1], the binding result is on record as “no binding”.

B12: T7 phage displaying RMRRIDR (SEQ ID NO: 190) (peptide)
peptide: RMRRIDR
notes: as for B1
Take B12: the binding result in assay [1] was “no binding”.

B13: T7 phage displaying CVRGGRARC (SEQ ID NO: 183) (peptide)
peptide: CVRGGRARC
modifications: not fully specified (bridges); cysteine pairing not given here; also: displayed on T7 phage
notes: carries RGGRA rather than RGXRS
In the case of B13, the binding result in assay [2] is “no binding”.

B14: T7 phage displaying the TT1 peptide CKRGARSTC (SEQ ID NO: 3) (peptide)
peptide: CKRGARSTC
notes: The phage protein it is fused to is not described; also called TT1 phage; TT phage
Take B14: the “fold stronger phage binding than the LyP-1 peptide” value in assay [5] is approximately 15 fold. The binding result (in the assay with BSA; in assay [2]) was “no binding” in each case.

B15: T7 phage displaying CTRGSRSKC (SEQ ID NO: 177) (peptide)
peptide: CTRGSRSKC
modifications: not fully specified (bridges); cysteine pairing not given here; also: displayed on T7 phage
notes: as for B2
With B15, the binding result (in the assay with BSA; in assay [2]) was “no binding” each time.

B16: T7 phage displaying SGVSRDR (SEQ ID NO: 191) (peptide)
peptide: SGVSRDR
notes: as for B1
In the case of B16, the binding result in assay [1] is “no binding”.

The record behind these values is patent US20210188909A1 (SANFORD BURNHAM PREBYS MEDICAL DISCOVERY INSTITUTE, published 2021).
